The labels stand for the following.
B1: Formin-binding protein 4, residues 200 to 261; numbered along this chain, Q8N3X1 (parent)
chain: SGWQYDTQCSLAGVGIEMGDWQEVWDENTGCYYYWNTQTNEVTWELPQYLATQVQGLQHYQP

± gives the uncertainty stated by the source.

Variants of B1 are the subject of the series. Briefly: abundance fitness (aPCA) (normalised: wild type 0, dead -1); higher = more abundant; growth selection in yeast, the domain comes from the species named. Particulars: Homo sapiens.
Consider SGWQYDTQCSLAGVGIEMGDWQEVWDENTGCYYYWNTQTNEVTWELPQYLATQVQGHQHYQP [L57H], for which the abundance fitness is -0.084 ± 0.1.
In the case of SGWQYDTQCSLAGVGIEMGDWQEVWDENTGCYYYWNTQTNEVTWELPQYLATQVQGQQHYQP [L57Q] it was 0.047 ± 0.078; in that of SGWQYDTQCSLAGVGIEMGDWQEVWDENTGCYYYWNTQTNEVTWELPQYLATQVQGEQHYQP [L57E], -0.093 ± 0.087.
The result for SGWQYDTQCSLAGVGIEMGDWQEVWDENTGCYYYWNTQTNEVTWELPQYLATQVQGFQHYQP [L57F] reads 0.02 ± 0.1; that for SGWQYDTQCSLAGVGIEMGDWQEVWDENTGCYYYWNTQTNEVTWELPQYLATQVQGIQHYQP [L57I], -0.136 ± 0.12.
In the case of SGWQYDTQCSLAGVGIEMGDWQEVWDENTGCYYYWNTQTNEVTWELPQYLATQVQGKQHYQP [L57K] it was 0.312 ± 0.083; in that of SGWQYDTQCSLAGVGIEMGDWQEVWDENTGCYYYWNTQTNEVTWELPQYLATQVQGSQHYQP [L57S], -0.084 ± 0.073; in that of SGWQYDTQCSLAGVGIEMGDWQEVWDENTGCYYYWNTQTNEVTWELPQYLATQVQGDQHYQP [L57D], -0.043 ± 0.12.
Turning to SGWQYDTQCSLAGVGIEMGDWQEVWDENTGCYYYWNTQTNEVTWELPQYLATQVQGGQHYQP [L57G], the abundance fitness is -0.15 ± 0.061.
The result for SGWQYDTQCSLAGVGIEMGDWQEVWDENTGCYYYWNTQTNEVTWELPQYLATQVQGWQHYQP [L57W] reads -0.349 ± 0.078.
In the case of SGWQYDTQCSLAGVGIEMGDWQEVWDENTGCYYYWNTQTNEVTWELPQYLATQVQGNQHYQP [L57N] it was -0.212 ± 0.1.
In the case of SGWQYDTQCSLAGVGIEMGDWQEVWDENTGCYYYWNTQTNEVTWELPQYLATQVQGYQHYQP [L57Y] it was -0.315 ± 0.13; in that of SGWQYDTQCSLAGVGIEMGDWQEVWDENTGCYYYWNTQTNEVTWELPQYLATQVQGRQHYQP [L57R], -0.029 ± 0.056.
In the case of SGWQYDTQCSLAGVGIEMGDWQEVWDENTGCYYYWNTQTNEVTWELPQYLATQVQGPQHYQP [L57P], the abundance fitness was -0.075 ± 0.086.
The result for SGWQYDTQCSLAGVGIEMGDWQEVWDENTGCYYYWNTQTNEVTWELPQYLATQVQGMQHYQP [L57M] reads -0.159 ± 0.086; that for SGWQYDTQCSLAGVGIEMGDWQEVWDENTGCYYYWNTQTNEVTWELPQYLATQVQGVQHYQP [L57V], -0.047 ± 0.063.
In the case of SGWQYDTQCSLAGVGIEMGDWQEVWDENTGCYYYWNTQTNEVTWELPQYLATQVQGLEHYQP [Q58E] it was -0.059 ± 0.088; in that of SGWQYDTQCSLAGVGIEMGDWQEVWDENTGCYYYWNTQTNEVTWELPQYLATQVQGLPHYQP [Q58P], -0.209 ± 0.11; in that of SGWQYDTQCSLAGVGIEMGDWQEVWDENTGCYYYWNTQTNEVTWELPQYLATQVQGLAHYQP [Q58A], -0.019 ± 0.075.
In the case of SGWQYDTQCSLAGVGIEMGDWQEVWDENTGCYYYWNTQTNEVTWELPQYLATQVQGLRHYQP [Q58R] it was -0.242 ± 0.066; in that of SGWQYDTQCSLAGVGIEMGDWQEVWDENTGCYYYWNTQTNEVTWELPQYLATQVQGLKHYQP [Q58K], 0.127 ± 0.093; in that of SGWQYDTQCSLAGVGIEMGDWQEVWDENTGCYYYWNTQTNEVTWELPQYLATQVQGLGHYQP [Q58G], -0.086 ± 0.056.
As for SGWQYDTQCSLAGVGIEMGDWQEVWDENTGCYYYWNTQTNEVTWELPQYLATQVQGLHHYQP [Q58H], the abundance fitness was -0.005 ± 0.14.
In the case of SGWQYDTQCSLAGVGIEMGDWQEVWDENTGCYYYWNTQTNEVTWELPQYLATQVQGLYHYQP [Q58Y] it was -0.256 ± 0.16; in that of SGWQYDTQCSLAGVGIEMGDWQEVWDENTGCYYYWNTQTNEVTWELPQYLATQVQGLFHYQP [Q58F], -0.195 ± 0.091; in that of SGWQYDTQCSLAGVGIEMGDWQEVWDENTGCYYYWNTQTNEVTWELPQYLATQVQGLCHYQP [Q58C], -0.293 ± 0.12.
For the variant SGWQYDTQCSLAGVGIEMGDWQEVWDENTGCYYYWNTQTNEVTWELPQYLATQVQGLTHYQP [Q58T], the abundance fitness is -0.139 ± 0.093.
The result for SGWQYDTQCSLAGVGIEMGDWQEVWDENTGCYYYWNTQTNEVTWELPQYLATQVQGLNHYQP [Q58N] reads 0.083 ± 0.14; that for SGWQYDTQCSLAGVGIEMGDWQEVWDENTGCYYYWNTQTNEVTWELPQYLATQVQGLLHYQP [Q58L], -0.36 ± 0.072.
In the case of SGWQYDTQCSLAGVGIEMGDWQEVWDENTGCYYYWNTQTNEVTWELPQYLATQVQGLMHYQP [Q58M] it was -0.067 ± 0.086; in that of SGWQYDTQCSLAGVGIEMGDWQEVWDENTGCYYYWNTQTNEVTWELPQYLATQVQGLWHYQP [Q58W], -0.421 ± 0.091; in that of SGWQYDTQCSLAGVGIEMGDWQEVWDENTGCYYYWNTQTNEVTWELPQYLATQVQGLQLYQP [H59L], -0.083 ± 0.052.
The result for SGWQYDTQCSLAGVGIEMGDWQEVWDENTGCYYYWNTQTNEVTWELPQYLATQVQGLQNYQP [H59N] reads 0.033 ± 0.12; that for SGWQYDTQCSLAGVGIEMGDWQEVWDENTGCYYYWNTQTNEVTWELPQYLATQVQGLQGYQP [H59G], -0.017 ± 0.076.
For SGWQYDTQCSLAGVGIEMGDWQEVWDENTGCYYYWNTQTNEVTWELPQYLATQVQGLQAYQP [H59A], the abundance fitness amounted to 0.008 ± 0.073.
The result for SGWQYDTQCSLAGVGIEMGDWQEVWDENTGCYYYWNTQTNEVTWELPQYLATQVQGLQMYQP [H59M] reads 0.082 ± 0.067; that for SGWQYDTQCSLAGVGIEMGDWQEVWDENTGCYYYWNTQTNEVTWELPQYLATQVQGLQIYQP [H59I], 0.045 ± 0.097.
The result for SGWQYDTQCSLAGVGIEMGDWQEVWDENTGCYYYWNTQTNEVTWELPQYLATQVQGLQEYQP [H59E] reads 0.137 ± 0.079.
The result for SGWQYDTQCSLAGVGIEMGDWQEVWDENTGCYYYWNTQTNEVTWELPQYLATQVQGLQRYQP [H59R] reads -0.125 ± 0.062.
SGWQYDTQCSLAGVGIEMGDWQEVWDENTGCYYYWNTQTNEVTWELPQYLATQVQGLQPYQP [H59P]: the abundance fitness is -0.115 ± 0.077.
In the case of SGWQYDTQCSLAGVGIEMGDWQEVWDENTGCYYYWNTQTNEVTWELPQYLATQVQGLQQYQP [H59Q] it was 0.083 ± 0.084; in that of SGWQYDTQCSLAGVGIEMGDWQEVWDENTGCYYYWNTQTNEVTWELPQYLATQVQGLQFYQP [H59F], -0.062 ± 0.084; in that of SGWQYDTQCSLAGVGIEMGDWQEVWDENTGCYYYWNTQTNEVTWELPQYLATQVQGLQKYQP [H59K], 0.188 ± 0.078.

(Values after the Human Domainome abundance scans (Beltran et al. 2025).)
